According to paper PMC8561282 (Haematologica, 2021):

Target: recombinant glyceraldehyde 3-phosphate dehydrogenase (GAPDH) tetramer (UniProt P04406 1-335)
Experiment: ITC

Sequence of recombinant glyceraldehyde 3-phosphate dehydrogenase (GAPDH) tetramer (P04406 whole entry): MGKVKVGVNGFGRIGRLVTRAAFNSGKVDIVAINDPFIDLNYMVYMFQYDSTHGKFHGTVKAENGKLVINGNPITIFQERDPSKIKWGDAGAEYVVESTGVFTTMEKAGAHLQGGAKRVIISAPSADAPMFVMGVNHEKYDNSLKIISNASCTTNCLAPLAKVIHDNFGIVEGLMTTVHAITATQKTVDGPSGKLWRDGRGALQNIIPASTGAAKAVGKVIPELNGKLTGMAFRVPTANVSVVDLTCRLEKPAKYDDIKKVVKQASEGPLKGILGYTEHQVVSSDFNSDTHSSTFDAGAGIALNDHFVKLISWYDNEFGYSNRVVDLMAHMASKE

Binder | Kd
MEELQDDYEDMMEENLEQEEYEDPDIPESQ (domain or fragment) [recombinantly expressed AE1 peptide spanning residues 1-30] | 44.8 mM
recombinantly expressed band 3 (AE1) peptide, residues 1-56 (domain or fragment) MEELQDDYEDMMEENLEQEEYEDPDIPESQMEEPAAHDTEATATDYHTTSHPGTHK | 2.56 mM
